Measurements taken from doi:10.1101/2021.09.24.461649 (bioRxiv, 2021).

B1: EspC-Δ20 truncated mutant (domain or fragment)
chain: MMTENLTVQPERLGVLASHHDNAAVDASSGVEAAAGLGESVAITHGPYCSQFNDTLNVYLTAHNALGSSLHTAGVDLAKSLRIA
B2: EspC-Δ10 truncated mutant (domain or fragment)
chain: MMTENLTVQPERLGVLASHHDNAAVDASSGVEAAAGLGESVAITHGPYCSQFNDTLNVYLTAHNALGSSLHTAGVDLAKSLRIAAKIYSEADEA
B3: EspC-Δ5 truncated mutant (domain or fragment)
chain: MTENLTVQPERLGVLASHHDNAAVDASSGVEAAAGLGESVAITHGPYCSQFNDTLNVYLTAHNALGSSLHTAGVDLAKSLRIAAKIYSEADEAWRKAID
B4: EspC (ESX-1 secreted protein C), wild type (natural protein)
chain: MMTENLTVQPERLGVLASHHDNAAVDASSGVEAAAGLGESVAITHGPYCSQFNDTLNVYLTAHNALGSSLHTAGVDLAKSLRIAAKIYSEADEAWRKAIDGLFT

Biological target: the molecule itself
Experiment: SEC
B1 was tested, and the “stoichiometry N” value was 6. In the case of B2, the “stoichiometry N” value is reported as 6. For B3, the “stoichiometry N” value was 6.

Each binder was assayed against EccA1 ATPase, wild type (M. tuberculosis H37Rv, UniProt P9WPH9 1-573) (assay: SPR).
EccA1 ATPase, wild type, sequence (P9WPH9 whole entry): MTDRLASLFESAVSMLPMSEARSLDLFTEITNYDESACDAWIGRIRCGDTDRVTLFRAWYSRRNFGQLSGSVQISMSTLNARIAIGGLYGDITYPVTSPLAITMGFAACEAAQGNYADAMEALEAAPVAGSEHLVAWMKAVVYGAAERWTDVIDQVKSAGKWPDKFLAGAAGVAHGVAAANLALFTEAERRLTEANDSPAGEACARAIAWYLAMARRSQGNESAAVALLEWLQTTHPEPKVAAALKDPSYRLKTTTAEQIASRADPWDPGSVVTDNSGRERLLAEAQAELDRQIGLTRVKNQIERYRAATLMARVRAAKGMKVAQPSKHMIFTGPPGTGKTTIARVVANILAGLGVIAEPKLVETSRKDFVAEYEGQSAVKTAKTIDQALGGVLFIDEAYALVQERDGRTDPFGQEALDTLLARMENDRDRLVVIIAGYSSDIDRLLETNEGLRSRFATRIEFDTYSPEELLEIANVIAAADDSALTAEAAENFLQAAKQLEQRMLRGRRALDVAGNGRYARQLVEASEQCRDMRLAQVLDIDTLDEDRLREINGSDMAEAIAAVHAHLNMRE
In the case of B4, the Kd is reported as about 0.14 µM. B2 gave a Kd of about 8.1 µM. With B3 the Kd was about 6.7 µM.
